Results published in patent US20190144917.

B1: recombinant MMP1 (protein)
chain: FVLTEGNPRWEQTHLTYRIENYTPDLPRADVDHAIEKAFQLWSNVTPLTFTKVSEGQADIMISFVRGDHRDNSPFDGPGGNLAHAFQPGPGIGGDAHFDEDERWTNNFREYNLHRVAAHELGHSLGLSHSTDIGALMYPSYTFSGDVQLAQDDIDGIQAIYGRSQNPVQ
B2: plasmin (protein)
chain: KVYLSECKTGNGKNYRGTMSKTKNGITCQKWSSTSPHRPRFSPATHPSEGLEENYCRNPDNDPQGPWCYTTDPEKRYDYCDILECEEECMHCSGENYDGKISKTMSGLECQAWDSQSPHAHGYIPSKFPNKNLKKNYCRNPDRELRPWCFTTDPNKRWELCDIPRCTTPPPSSGPTYQCLKGTGENYRGNVAVTVSGHTCQHWSAQTPHTHNRTPENFPCKNLDENYCRNPDGKRAPWCHTTNSQVRWEYCKIPSCDSSPVSTEQLAPTAPPELTPVVQDCYHGDGQSYRGTSSTTTTGKKCQSWSSMTPHRHQKTPENYPNAGLTMNYCRNPDADKGPWCFTTDPSVRWEYCNLKKCSGTEASVVAPPPVVLLPDVETPSEEDCMFGNGKGYRGKRATTVTGTPCQDWAAQEPHRHSIFTPETNPRAGLEKNYCRNPDGDVGGPWCYTTNPRKLYDYCDVPQCAAPSFDCGKPQVEPKKCPGRVVGGCVAHPHSWPWQVSLRTRFGMHFCGGTLISPEWVLTAAHCLEKSPRPSSYKVILGAHQEVNLEPHVQEIEVSRLFLEPTRKDIALLKLSSPAVITDKVIPACLPSPNYVVADRTECFITGWGETQGTFGAGLLKEAQLPVIENKVCNRYEFLNGRVQSTELCAGHLAGGTDSCQGDSGGPLVCFEKDKYILQGVTSWGLGCARPNKPGVYVRVSRFVTWIEGVMRNN
B3: recombinant MMP7 (protein)
chain: YSLFPNSPKWTSKVVTYRIVSYTRDLPHITVDRLVSKALNMWGKEIPLHFRKVVWGTADIMIGFARGAHGDSYPFDGPGNTLAHAFAPGTGLGGDAHFDEDERWTDGSSLGINFLYAATHELGHSLGMGHSSDPNAVMYPTYGNGDPQNFKLSQDDIKGIQKLYGKRSNSRKK

Assays:
[1] = biological target: T1, C1-NPs: fluorescein-conjugated MMP substrate peptide C1 (FAM-sk-PLGLEEA-GC) coupled to iron oxide nanoparticles (not fully specified)
T1 chain: SKPLGLEEAGC

[2] = biological target: T2, alternate substrate/reporter peptide eGvndneeGffsarKsRLVGEGC (second substrate RLVGEGC), unmodified
T2 chain: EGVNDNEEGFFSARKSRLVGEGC

[3] = biological target: T3, alternate substrate/reporter peptide eGvndneeGffsarKsRLVGEGC veiled with DMNPE
T3 chain: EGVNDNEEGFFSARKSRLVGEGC

[4] = biological target: T4, S2: Biotin-CGPVPLSLVMK(Cy7)eGvndneeGffsar-NH2
T4 chain: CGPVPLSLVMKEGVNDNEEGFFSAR

Protein | proteolysis (fluorescence dequenching) [1] | proteolysis [2] | proteolysis [3] | relative proteolysis (Cy7 signal after streptavidin depletion of uncleaved peptide) [4]
B1 | significantly cleaved by MMP13, 7, 1, and 9 | – | – | –
B2 | – | proteolysis by plasmin | reduced proteolysis by plasmin, which was recovered by UV exposure | –
B3 | significantly cleaved by MMP13, 7, 1, and 9 | – | – | cleaved efficiently by MMP7 and MMP19
